Experimental data as given in publication PMC1780049, “Functional analysis of Arabidopsis WRKY25 transcription factor in plant defense against Pseudomonas syringae”.

T1: WRKY25 (Arabidopsis, UniProt O22921 1-393)
T1 sequence: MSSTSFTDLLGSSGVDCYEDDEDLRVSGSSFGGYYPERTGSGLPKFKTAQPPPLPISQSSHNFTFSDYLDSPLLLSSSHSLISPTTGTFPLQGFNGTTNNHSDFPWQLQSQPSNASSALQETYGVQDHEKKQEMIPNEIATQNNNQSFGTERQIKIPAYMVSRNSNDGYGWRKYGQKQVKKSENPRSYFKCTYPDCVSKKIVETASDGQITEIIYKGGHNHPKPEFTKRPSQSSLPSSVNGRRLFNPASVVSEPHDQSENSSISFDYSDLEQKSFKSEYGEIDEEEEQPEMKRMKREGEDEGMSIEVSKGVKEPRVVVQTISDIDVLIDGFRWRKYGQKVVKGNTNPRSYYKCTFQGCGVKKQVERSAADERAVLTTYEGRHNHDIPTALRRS

B1: Pchn5 (dsDNA)
DNA 1: GGAACTTGACCATCCGTTGACCGGGCTGCAGGAATTCG
DNA 2: CGAATTCCTGCAGCCCGGTCAACGGATGGTCAAGTTCC
B2: mPchn5 (dsDNA)
DNA 1: GGAACTTGAACATCCGTTGAACGGGCTGCAGGAATTCG
DNA 2: CGAATTCCTGCAGCCCGTTCAACGGATGTTCAAGTTCC

Target: T1, WRKY25
Test: EMSA; poly(dIdC) 5 ug; 12 ul nuclear extraction buffer (25 mM HEPES/KOH pH 7.5, 40 mM KCl, 0.1 mM EDTA, 10% glycerol, 1 mM DTT, PMSF), 5 ug poly(dIdC), 1 ug protein, 2 ng labelled dsDNA; room temperature 30 min; 10% PAGE in 0.5x TBE at 4 C
Conditions: protein: recombinant, tags: His-tagged, pET32a (EcoRI/XhoI) vector fusion, (Klenow labelled, ~10^5 cpm/ng)

Binder	binding result
B1	binds
B2	no binding
